# Experimental data: patent US10800847
# Experiments:
# [1] = molecular target: HLA-A*8001 (A80) single antigen on Luminex beads (human); test: Luminex single antigen bead assay, iBeads vs regular beads, IVIg 1:8
# [2] = molecular target: HLA-A*6901 (A69) single antigen on Luminex beads (human); test: as above
# [3] = molecular target: HLA-A*4301 (A43) single antigen on beads (human); test: Luminex iBeads (#6), IVIg 1:8
# [4] = molecular target: HLA-A*6601 (A66) single antigen on beads (human); test: Luminex iBeads (#6), IVIg 1:8
# [5] = molecular target: HLA-A*3101 (A31) single antigen on beads (human); test: Luminex iBeads (#6), IVIg 1:8
# [6] = molecular target: HLA-A*3002 (A30) single antigen on beads (human); test: Luminex iBeads (#6), IVIg 1:8
# [7] = molecular target: HLA-A*3401 (A34) single antigen on beads (human); test: Luminex iBeads (#6), IVIg 1:8
# [8] = molecular target: HLA-A*2902 (A29) single antigen on beads (human); test: Luminex iBeads (#6), IVIg 1:8
# [9] = molecular target: HLA-A*3001 (A30) single antigen on beads (human); test: Luminex iBeads (#6), IVIg 1:8
# [10] = molecular target: HLA-A*3402 (A34) single antigen on beads (human); test: Luminex iBeads (#6), IVIg 1:8
# [11] = molecular target: HLA-A*3201 (A32) single antigen on beads (human); test: Luminex iBeads (#6), IVIg 1:8
# [12] = molecular target: HLA-A*3601 (A36) single antigen on beads (human); test: Luminex iBeads (#6), IVIg 1:8
# [13] = molecular target: HLA-A*6602 (A66) single antigen on beads (human); test: Luminex iBeads (#6), IVIg 1:8
# [14] = molecular target: HLA-A*3303 (A33) single antigen on beads (human); test: Luminex iBeads (#6), IVIg 1:8
# [15] = molecular target: HLA-Cw*0602 (Cw6) (human); test: Luminex, iBeads (#6), 1:8
# [16] = molecular target: HLA-Cw*1601 (Cw16) (human); test: Luminex, iBeads (#6), 1:8
# [17] = molecular target: Albumin (negative control beads) (human or bovine); test: Luminex, iBeads (#6), 1:8
# [18] = molecular target: HLA-Cw*1802 (Cw18) (human); test: Luminex, iBeads (#6), 1:8
# [19] = molecular target: HLA-Cw*0303 (Cw9) (human); test: Luminex, iBeads (#6), 1:8
# [20] = molecular target: HLA-Cw*1701 (Cw17) (human); test: Luminex, iBeads (#6), 1:8
# [21] = molecular target: HLA-Cw*1402 (Cw14) (human); test: Luminex, iBeads (#6), 1:8
# [22] = molecular target: HLA-Cw*0702 (Cw7) (human); test: Luminex, iBeads (#6), 1:8
# [23] = molecular target: HLA-Cw*1203 (Cw12) (human); test: Luminex, iBeads (#6), 1:8
# [24] = molecular target: HLA-Cw*0304 (Cw10) (human); test: Luminex, iBeads (#6), 1:8
# [25] = molecular target: HLA-Cw*0302 (Cw10) (human); test: Luminex, iBeads (#6), 1:8
# [26] = molecular target: HLA-Cw*1502 (Cw15) (human); test: Luminex, iBeads (#6), 1:8
# HLA-B*8201 (B82) (human) = test: Luminex, iBeads (#6), 1:8
# [27] = molecular target: HLA-Cw*0501 (Cw5) (human); test: Luminex, iBeads (#6), 1:8
# [28] = molecular target: Serum albumin on negative control beads (HSA/BSA) (human or bovine); test: Luminex regular beads (#7), IVIg diluted 1:8
# HLA-B*0801 (B8) (human) = test: iBead MFI against regular-bead MFI, IVIg diluted 1:8
# HLA-B*1512 (B76) (human) = test: as above
# HLA-B*1402 (B65) (human) = test: as above
# HLA-B*1301 (B13) (human) = test: as above
# [29] = molecular target: Serum albumin on negative control beads (HSA/BSA) (human or bovine); test: as above
# HLA-B*1401 (B64) (human) = test: as above
# HLA-B*1302 (B13) (human) = test: as above
# HLA-B*1503 (B72) (human) = test: as above
# HLA-B*1511 (B75) (human) = test: as above
# HLA-B*0702 (B7) (human) = test: as above
# HLA-B*1510 (B71) (human) = test: as above
# HLA-B*1501 (B62) (human) = test: as above
# HLA-B*1801 (B18) (human) = test: as above
# HLA-B*1502 (B75) (human) = test: as above
# [30] = molecular target: HLA-A*3301 (A33) single antigen on beads (human); test: Luminex iBeads (#6), IVIg 1:8
# [31] = molecular target: HLA-A*6801 (A68) single antigen on beads (human); test: Luminex iBeads (#6), IVIg 1:8
# HLA-B*1513 (B77) (human) = test: iBead MFI against regular-bead MFI, IVIg diluted 1:8
substance,measurement,setting,value
IVIg Gamunex-C Lot NKLK1 (antibody),Difference % (iBead MFI against regular bead MFI),[1],-29%
same,Difference % (iBead MFI against regular bead MFI),[2],4%
same,MFI,[3],2720 MFI
same,MFI,[4],2330 MFI
same,MFI,[5],0 MFI
same,MFI,[6],1410 MFI
same,MFI,[7],3420 MFI
same,MFI,[8],2890 MFI
same,MFI,[9],1340 MFI
same,MFI,[10],0 MFI
same,MFI,[11],915 MFI
same,MFI,[12],1550 MFI
same,MFI,[13],1860 MFI
same,MFI,[14],517 MFI
same,MFI,[15],2110 MFI
same,MFI,[16],1560 MFI
same,MFI,[17],7800 MFI
same,MFI,[18],1480 MFI
same,MFI,[19],1660 MFI
same,MFI,[20],3250 MFI
same,MFI,[21],1070 MFI
same,MFI,[22],2400 MFI
same,MFI,[23],1950 MFI
same,MFI,[24],1820 MFI
same,MFI,[25],1770 MFI
same,MFI,[26],1200 MFI
same,MFI,HLA-B*8201 (B82) (human),-193 MFI
same,MFI,[27],2020 MFI
same,MFI,[28],10300 MFI
same,Difference % (iBead vs regular bead),HLA-B*0801 (B8) (human),-100%
same,Difference % (iBead vs regular bead),HLA-B*1512 (B76) (human),51%
same,Difference % (iBead vs regular bead),HLA-B*1402 (B65) (human),-100%
same,Difference % (iBead vs regular bead),HLA-B*1301 (B13) (human),-71%
same,Difference % (iBead vs regular bead),[29],-24%
same,Difference % (iBead vs regular bead),HLA-B*1401 (B64) (human),-82%
same,Difference % (iBead vs regular bead),HLA-B*1302 (B13) (human),-100%
same,Difference % (iBead vs regular bead),HLA-B*1503 (B72) (human),-100%
same,Difference % (iBead vs regular bead),HLA-B*1511 (B75) (human),-51%
same,Difference % (iBead vs regular bead),HLA-B*0702 (B7) (human),-100%
same,Difference % (iBead vs regular bead),HLA-B*1510 (B71) (human),-79%
same,Difference % (iBead vs regular bead),HLA-B*1501 (B62) (human),253%
same,Difference % (iBead vs regular bead),HLA-B*1801 (B18) (human),-100%
same,Difference % (iBead vs regular bead),HLA-B*1502 (B75) (human),-94%
IVIg Gamunex-C Lot NKLG1 (antibody),Difference % (iBead MFI against regular bead MFI),[1],24%
same,Difference % (iBead MFI against regular bead MFI),[2],122%
same,MFI,[30],4460 MFI
same,MFI,[5],3410 MFI
same,MFI,[31],3150 MFI
same,MFI,[8],6010 MFI
same,MFI,[9],4470 MFI
same,MFI,[11],3760 MFI
same,MFI,[12],3950 MFI
same,MFI,[14],3330 MFI
same,MFI,[15],4230 MFI
same,MFI,[16],4070 MFI
same,MFI,[17],7150 MFI
same,MFI,[18],3580 MFI
same,MFI,[19],4290 MFI
same,MFI,[20],6150 MFI
same,MFI,[21],3970 MFI
same,MFI,[23],4810 MFI
same,MFI,[24],4140 MFI
same,MFI,[25],4870 MFI
same,MFI,[26],3590 MFI
same,MFI,HLA-B*8201 (B82) (human),2730 MFI
same,MFI,[27],4010 MFI
same,MFI,[28],10800 MFI
same,Difference % (iBead vs regular bead),HLA-B*0801 (B8) (human),-31%
same,Difference % (iBead vs regular bead),HLA-B*1513 (B77) (human),-45%
same,Difference % (iBead vs regular bead),HLA-B*1512 (B76) (human),244%
same,Difference % (iBead vs regular bead),HLA-B*1301 (B13) (human),-31%
same,Difference % (iBead vs regular bead),HLA-B*1401 (B64) (human),-33%
same,Difference % (iBead vs regular bead),HLA-B*1302 (B13) (human),-45%
same,Difference % (iBead vs regular bead),HLA-B*1503 (B72) (human),-79%
same,Difference % (iBead vs regular bead),HLA-B*1511 (B75) (human),-17%
same,Difference % (iBead vs regular bead),HLA-B*0702 (B7) (human),39%
same,Difference % (iBead vs regular bead),HLA-B*1510 (B71) (human),1%
same,Difference % (iBead vs regular bead),HLA-B*1801 (B18) (human),112%
same,Difference % (iBead vs regular bead),HLA-B*1502 (B75) (human),32%
"IVIg GamaSTAN S/D (Talecris Biotherapeutics, USA) (antibody)",MFI,[3],4180 MFI
same,MFI,[30],1880 MFI
same,MFI,[4],2610 MFI
same,MFI,[5],351 MFI
same,MFI,[6],929 MFI
same,MFI,[31],634 MFI
same,MFI,[7],4320 MFI
same,MFI,[8],4430 MFI
same,MFI,[9],624 MFI
same,MFI,[10],1210 MFI
same,MFI,[11],1820 MFI
same,MFI,[12],1380 MFI
same,MFI,[13],4320 MFI
same,MFI,[14],725 MFI
same,MFI,[15],8180 MFI
same,MFI,[16],2950 MFI
same,MFI,[17],5030 MFI
same,MFI,[18],7810 MFI
same,MFI,[19],2610 MFI
same,MFI,[20],9610 MFI
same,MFI,[21],1820 MFI
same,MFI,[22],3480 MFI
same,MFI,[23],2660 MFI
same,MFI,[24],2750 MFI
same,MFI,[25],2380 MFI
same,MFI,[26],7670 MFI
same,MFI,HLA-B*8201 (B82) (human),4260 MFI
same,MFI,[27],6350 MFI
same,MFI,[28],3790 MFI
same,Difference % (iBead vs regular bead),HLA-B*0801 (B8) (human),-63%
same,Difference % (iBead vs regular bead),HLA-B*1513 (B77) (human),-27%
same,Difference % (iBead vs regular bead),HLA-B*1512 (B76) (human),125%
same,Difference % (iBead vs regular bead),HLA-B*1402 (B65) (human),-100%
same,Difference % (iBead vs regular bead),[29],33%
same,Difference % (iBead vs regular bead),HLA-B*1401 (B64) (human),-85%
same,Difference % (iBead vs regular bead),HLA-B*1503 (B72) (human),-100%
same,Difference % (iBead vs regular bead),HLA-B*1511 (B75) (human),-16%
same,Difference % (iBead vs regular bead),HLA-B*0702 (B7) (human),-10%
same,Difference % (iBead vs regular bead),HLA-B*1510 (B71) (human),-43%
same,Difference % (iBead vs regular bead),HLA-B*1501 (B62) (human),270%
same,Difference % (iBead vs regular bead),HLA-B*1801 (B18) (human),0%
